Source: patent US20260242488A1 (BIOTHEUS, published 2026)
Numbering of substitutions follows the chain as printed.

B1: anti-c-Met single-arm antibody 221 (antibody, human IgG1, kappa, L234A L235A)
heavy: not shown
light: EIVLTQSPGTLSLSPGERATLSCRASQSVSSSYLAWYQQKPGQAPRLLIYGPSSRATGIPDRFSGSGSGTDFTLTISSLQPADFASYYCQQSYITPYTFGQGTKVEIKRTVAAPSVFIFPPSDEQLKSGTASVVCLLNNFYPREAKVQWKVDNALQSGNSQESVTEQDSKDSTYSLSSTLTLSKADYEKHKVYACEVTHQGLSSPVTKSFNRGEC
chain: not shown
notes: made in Expi-CHO
B2: anti-c-Met single-arm antibody 223 (antibody, human IgG1, kappa, L234A L235A)
heavy: not shown
light: DIQLTQSPSSLSASVGDRVTITCRASQSIITYLNWYQQKPGKAPKLLIYAASSLQSGVPSRFSGSGSGTDFTLNISSLQPEDFATYYCQQANSLPYTFGQGTKVEIKRTVAAPSVFIFPPSDEQLKSGTASVVCLLNNFYPREAKVQWKVDNALQSGNSQESVTEQDSKDSTYSLSSTLTLSKADYEKHKVYACEVTHQGLSSPVTKSFNRGEC
chain: not shown
notes: made in Expi-CHO
B3: anti-c-Met single-arm antibody 23 (antibody, human IgG1, kappa, L234A L235A)
heavy: not shown
light: DIVMTQSPSSLSASVGDRVTITCRASQSFSDYLNWYRQKPGKAPKLLLFAASSLQSGVPSRFSGSGSGTDFTLTISSLQPEDFATYYCQQSYSPPYTFGQGTKLEIKRTVAAPSVFIFPPSDEQLKSGTASVVCLLNNFYPREAKVQWKVDNALQSGNSQESVTEQDSKDSTYSLSSTLTLSKADYEKHKVYACEVTHQGLSSPVTKSFNRGEC
chain: not shown
notes: made in Expi-CHO
B4: anti-c-Met single-arm antibody 22 (antibody, human IgG1, kappa, L234A L235A)
heavy: not shown
light: DIVMTQSPSSVSASVGDRVTITCRASQGISSWLAWYQQKPGKAPKLLIYAASSLQSGVPSKFSGSGSGTEFTLTISSLQPEDFATYFCQQAYGFPLTFGGGTKVEIKRTVAAPSVFIFPPSDEQLKSGTASVVCLLNNFYPREAKVQWKVDNALQSGNSQESVTEQDSKDSTYSLSSTLTLSKADYEKHKVYACEVTHQGLSSPVTKSFNRGEC
chain: not shown
notes: made in Expi-CHO
B5: anti-c-Met single-arm antibody 74 (antibody, human IgG1, kappa, L234A L235A)
heavy: not shown
light: B4 light with S30N, K45N, K61R, S65R, E70D, T72S, Q79H, F87Y, Y92K
chain: not shown
notes: made in Expi-CHO
B6: anti-c-Met single-arm antibody 136 (antibody, human IgG1, kappa, L234A L235A)
heavy: not shown
light: B4 light with A51V, K61R, E70D, Y92N, G93S
chain: not shown
notes: made in Expi-CHO
B7: anti-c-Met single-arm antibody 187 (antibody, human IgG1, kappa, L234A L235A)
heavy: not shown
light: B4 light with K45N, S53N, Q55P, K61R, E70V, F87Y, A91S, Y92N, G93S
chain: not shown
notes: made in Expi-CHO

What follows are binders tested against monkey c-Met (recombinant protein) (monkey) (assay: BLI (ForteBio), antibody on AHQ sensor, monkey c-Met in solution, 1:1 model).

Kd [nM] | koff [s⁻¹] | kon [M⁻¹ s⁻¹] | Binder
63.8 | 0.00192 | 30100 | B1
16.2 | 0.00109 | 67300 | B2
26.5 | 0.00151 | 56900 | B3
19 | 0.00259 | 136000 | B4
9.7 | 0.0026 | 269000 | B5
1.16 | 0.000426 | 369000 | B6
2.92 | 0.000947 | 324000 | B7
